The supplement of paper PMC9170038

Columns and labels:
MS2 coat protein [1] = assay: apparent KD of MS2 coat protein, switch ON state; designed switch direction (-1 OFF switch, 1 ON switch): -1; higher = weaker reporter binding; settings: FMN input: 0 or 200 uM; Eterna round: R93 (includes R88 designs)
Summary of the method: (§1)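 For every design, apparent KD is the median of normalised binding-curve fits from its clusters. The RNA switches were transcribed on-chip from Illumina sequencing clusters and titrated with SNAP-549-labelled MS2 coat protein (twofold steps, 0.7 or 1.5 nM to 3 µM; 0.8–1.5 h to 10–20 min per step). Titrations used 100 mM Tris-HCl pH 7.5, 80 mM KCl, 4 mM MgCl2, without or with constant ligand.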

MS2 coat protein [2] = assay: apparent KD of MS2 coat protein, switch OFF state (with FMN for OFF switches, without FMN for ON switches); designed switch direction (-1 OFF switch, 1 ON switch): -1; higher = weaker reporter binding; settings: FMN input: 0 or 200 uM; Eterna round: R93 (includes R88 designs)
Summary of the method: as §1

| Sequence | apparent KD of MS2 coat protein (MS2 coat protein [1]) [nM] | apparent KD of MS2 coat protein (MS2 coat protein [2]) [nM] |
| --- | --- | --- |
| AAGGGACAUGAGGAUCACCCAUGUCAGGAUAUGAUGCGAAUAAAGAAAGAAUAAAGCAUCAGAAGGGACGCCAA [Mat - Exclusion 1 - Eli mod - D65] | 21.1 | 25.7 |
| GAAAAGUGAGGAUAUACAUGAGGAUCACCCAUGUGUAUAAAAAAAUACACAAAAGAAAGUAGAAGGCACUAAAG [Mat - Exclusion 3 - Mayanna mod - D110] | 23.1 | 48.7 |
| GAAAACAGAGGAUAUACAAAAUUGACACGAAAGGUGCAAAAACAUGAGGAUCACCCAUGUAGAAGGCUGAAGAA [Meechl MS2 Ex2 3] | 25.3 | 21.1 |
| CUCGUGUCAGGAUAUGGAAGGCCGUUUGAUUAACGAGGGUACUAGAAGGGACAUGAGGAUCACCCAUGUAAAAA [Maonis] | 81.5 | 90.4 |
| AAAAAGGCAGGAUAUGCAUACACACGAAAAAAAAAACUGGGACAUGAGGAUCACCCAUGUAGAAGGGCCAAAAA [Dora Explored 9 - Jieux - Exclusion 2] | 67.5 | 41.9 |
| AAAAAACAUGAGGAUCACCCAUGUCAGGAUAUCGUCAUAGAUGCAAAAGCAUCUAUGACGAGAAGGGACAUGCC [JL EX1 03] | 103 | 64.6 |
| AGCUAGUGAGGAUAUACGAACAUGUCAAAAGACGUGAAGGAACAUGAGGAUCACCCAUGUAGAAGGCACUAGCA [Mat - Exclusion 2 - JL-Eli mod - D54] | 17.2 | 14.6 |
| AAAAAACAUGAGGAUCACCCAUGUGAGGAUAUGAAAUUACUAAGACAACUGUAAUCAAUCAGAAGGCACAACAA [JR_Exc--1_Sub1207] | 23.6 | 38.6 |
| AAAAAACAUGAGGAUCACCCAUGUCAGGAUAUGCUAUGGAAAAUAAAAAUAAAACAUAGCAGAAGGGACACCAA [64%, Meechl, 2] | 32.8 | 58.1 |
| AAUGCGGCAGGAUAUACAUGAGGAUCACCCAUGUAGAUCAGAUAUAUGGGAAAACCAUGUAGAAGGGCCGCAAA [Ex 3May 60] | 109 | 29.6 |
| CUCAAGUGAGGAUAUCAGUAGUAAAAAAAUAAAAUUACUACUGAGAAGGCACAUGAGGAUCACCCAUGUGUCUU [EX4 333: Super Stable 33] | 14.1 | 11.1 |
| AAAGGAUCAGGAUAUGUGUGGAAAAAGUGUGUCCCAAAAAAACAUGAGGAUCACCCAUGUAGAAGGGAUCCAAA [Mod 5 of Normal (20/19) by Nando, Round 1] | 44.9 | 97.8 |
| AAAAAUCGAGGAUAUACAUGAGGAUCACCCAUGUAAAAAAAAAAAAAGGGAAAAAAAAGUAGAAGGCGAAAAAA [Sekhemre-Heruhirmaat Intef VII] | 58 | 30 |
| UAAAGACAUGAGGAUCACCCAUGUGAGGAUAUAGGUGUAUGCAAAAAAAAGUUAAAAACUAGAAGGCACAGAAA [JR_Exc001_Sub305] | 66 | 42.5 |
| AUCUACCUAGGAUAUACAUGAGGAUCACCCAUGUACAGAUACAACUAGGGAAACACACGUAGAAGGAGGUAGAU [JR_Exc003_Sub1207] | 15.6 | 37.3 |
| AAGAAGUCAGGAUAUACUAAAGAAAUAAAAAGAAAGAAAGAACAUGAGGAUCACCCAUGUAGAAGGGACAAGAA [Sewadjare Mentuhotep V] | 67.4 | 31.7 |
| UAAAAACAUGAGGAUCACCCAUGUGAGGAUAUGUACGAAAUAAAUAAAAAAUAAAAGUACAGAAGGCACAAAAU [Mat - Exclusion 1 - Eli mod - D6] | 37 | 52.6 |
| AAGAAACAUGAGGAUCACCCAUGUGAGGAUAUUCAAAAGAAAAGAAAAGAAAGAAGAAGAAGAAGGCACAAAGG [Neferkamin] | 24.7 | 45.5 |
| GAAAAGCAAGGAUAUACAUGAGGAUCACCCAUGUGGAAUGGCGUGACCGAAAGAAAAGGUAGAAGGUGCACGUG [Ragetia] | 216 | 286 |
| AACUAGUCAGGAUAUACGAACAUGUCAAAAAACAUGAAGGGACAUGAGGAUCACCCAUGUAGAAGGGACUAGCA [74%, Web mod - With 3 less G's] | 60.5 | 209 |
| CUUGUGUGAGGAUAUGUAAAAUGAAUAAGCAGUUCUAAAAGGCAGAAGGUACAUGAGGAUCACCCAUGUGAAAA [Inza] | 39.3 | 49.8 |
| AACAGUACAGGAUAUACAUGAGGAUCACCCAUGUCACAGAAAUAAAACAAAAAUAAAAGUAGAAGGGUACUGGA [Ruby 41] | 31.2 | 36.7 |

| Sequence | apparent KD of MS2 coat protein (MS2 coat protein [1]) [nM] | apparent KD of MS2 coat protein (MS2 coat protein [2]) [nM] |
| --- | --- | --- |
| GCUGUCGAAGGAUAUACAUGAGGAUCACCCAUGUGAGAGAAAAAAGUGAGAAAGAAAAGUAGAAGGUCGGUAGG [salish99-ex3-97] | 29.6 | 35.7 |
| GAUCAGCUAGGAUAUACAUUAAUCCGAUAUGAGAAGAAAGAACAUGAGGAUCACCCAUGUAGAAGGAGCCAGUA [Ridigeer] | 40.2 | 39.3 |
| AAGAAACAUGAGGAUCACCCAUGUCAGGAUAUGAAAAAGAAAAGAAAAGAAAGAAGAAUCAGAAGGGACAAAGG [Neferkauhor Khuwihapi] | 74.1 | 27.4 |
| AAACCACAUGAGGAUCACCCAUGUCAGGAUAUGAACGAAAUAAAAUAAAAAUAAAAGUUCAGAAGGGACGAAAA [Mat - Exclusion 1 - Eli mod - D17] | 27.3 | 33.8 |
| AACAGUACAGGAUAUACAUGAGGAUCACCCAUGUAAAAAAAGGGUGGCGUACCACGAAGUAGAAGGGUACUGGA [Moding Maslow revisited (73) 11] | 187 | 81.3 |
| AAAAAGGAAGGAUAUACGAACAUGUCGAAAGACGUGAAGGGACAUGAGGAUCACCCAUGUAGAAGGUUCAAAAA [Mat - Exclusion 2 - JL mod - D80] | 33.6 | 19.3 |
| AAGAAGUAAGGAUAUACAAGAAAGAAAGAAAAGAAAAGAAAACAUGAGGAUCACCCAUGUAGAAGGUACUAGAA [EteRNA is fun!] | 24.1 | 14.9 |
| CCAAGACAUGAGGAUCACCCAUGUGAGGAUAUAGGUGUAUGCAAAAAAAAGUUAAAAACUAGAAGGCACAGAAA [JR_Exc001_Sub306] | 30.7 | 25 |
| AUAAAUCGAGGAUAUACAUGAGGAUCACCCAUGUAAAUAAAUAAAUAAUCCUCAGGAAGUAGAAGGCGAAAUAA [JR_Exc003_Sub019] | 15.1 | 27.2 |
| AACAGUACAGGAUAUACAUGAGGAUCACCCAUGUGAGAGAAAUAAAACAAAAAUAAAAGUAGAAGGGUACUGAA [Mat - Exclusion 3 - Eli mod - D67] | 31.8 | 36 |
| GGUUGGCGAGGAUAUACAUGAGGAUCACCCAUGUGAGAGGAAAAAGUGAGGAGGAGAAGUAGAAGGCGCUGACG [salish99-ex3-22] | 29.6 | 138 |
| AAAAAACAUGAGGAUCACCCAUGUAAGGAUAUGCGAAAAUAAAAUAAAAUAAAAUAAAGCAGAAGGUACAAAAG [Mat - Exclusion 1 - Eli mod - D3] | 28.8 | 49.5 |
| GGUGGCGUAGGAUAUACAUGAGGAUCACCCAUGUGAGAGAAAAAAGUGAGAAAGAAAAGUAGAAGGACGUUACG [salish99-ex3-126] | 40.3 | 147 |
| AAAGGACGAGGAUAUACAUGAGGAUCACCCAUGUAAAAAACAUAACAAAAGAACUUAUGUAGAAGGCGUCCAAA [69%, Moding Meechl, 2] | 54.4 | 403 |
| UUUAAGUCAGGAUAUUCGGAUAGGAAAACGAAAACCUAUCCGAAGAAGGGACAUGAGGAUCACCCAUGUAAAAA [Starry Exclusion 4.3 (cataway round 1 mod)] | 52.1 | 56.3 |
| AAAAAGUGAGGAUAUGCGCUGUGGAGUAGACACGACCAGUCGUAGAAGGCACAUGAGGAUCACCCAUGUUCAAA [EX4 Malc#21] | 27.4 | 25.3 |
| AAAAAAGGAGGAUAUACGAACAUGUCAAAAGACGUGAAGGGACAUGAGGAUCACCCAUGUAGAAGGCUUAAAAA [JL Stem Breaker 4] | 42.2 | 19.2 |
| AGAAAGGUAGGAUAUACGAAAAAAAAGGGUAGAAAAAAAACACAUGAGGAUCACCCAUGUAGAAGGACCAAAGA [Mat - Exclusion 2 - Tesla mod - D31] | 35.2 | 47.5 |
| AGUUGGCGAGGAUAUACAUGAGGAUCACCCAUGUGAGAGAAAAAAGUGAGAAAGAAAUGUAGAAGGCGCUCACA [JL Lego Mod 13] | 62.8 | 37.5 |
| AAGAACCUAGGAUAUACAAAAUAAAAGAAAAGAAAGAAAGAACAUGAGGAUCACCCAUGUAGAAGGAGGAAGAA [Renseneb] | 48.3 | 18.5 |
| AAGAAUGAAGGAUAUACAAGGAAGAAAGAAAAGAAAAGAAAACAUGAGGAUCACCCAUGUAGAAGGUCAUAGAA [EteRNA is fun!] | 22 | 26.3 |
| AAAAAACAUGAGGAUCACCCAUGUAAGGAUAUGCUAGGAAAAAGAAAAAUAAAAACUAGCAGAAGGUACAUUAA [JL wbt mod 9] | 26.6 | 38.3 |
